{"source": "patent US20240117018A1", "assay_in_all_cases": "cell-based or functional assay", "key": {"[1]": {"biological_target": "HIV-1 Env of pseudovirus 0815.v3.c3 (HIV-1)"}, "[2]": {"biological_target": "HIV-1 Env of pseudovirus 191955_A11 (HIV-1)"}, "[3]": {"biological_target": "HIV-1 Env of pseudovirus 211-9 (HIV-1)"}, "[4]": {"biological_target": "HIV-1 Env of pseudovirus 231965.c01 (HIV-1)"}, "[5]": {"biological_target": "HIV-1 Env of pseudovirus 231966.c02 (HIV-1)"}, "[6]": {"biological_target": "HIV-1 Env of pseudovirus 235-47 (HIV-1)"}, "[7]": {"biological_target": "HIV-1 Env of pseudovirus 263-8 (HIV-1)"}, "[8]": {"biological_target": "HIV-1 Env of pseudovirus 3016.v5.c45 (HIV-1)"}, "[9]": {"biological_target": "HIV-1 Env of pseudovirus 3103.v3.c10 (HIV-1)"}, "[10]": {"biological_target": "HIV-1 Env of pseudovirus 3301.v1.c24 (HIV-1)"}, "[11]": {"biological_target": "HIV-1 Env of pseudovirus 3817.v2.c59 (HIV-1)"}, "[12]": {"biological_target": "HIV-1 Env of pseudovirus 620345.c01 (HIV-1)"}, "[13]": {"biological_target": "HIV-1 Env of pseudovirus 6480.v4.c25 (HIV-1)"}, "[14]": {"biological_target": "HIV-1 Env of pseudovirus 6540.v4.c1 (HIV-1)"}, "[15]": {"biological_target": "HIV-1 Env of pseudovirus 6545.v4.c1 (HIV-1)"}, "[16]": {"biological_target": "HIV-1 Env of pseudovirus 6811.v7.c18 (HIV-1)"}, "[17]": {"biological_target": "HIV-1 Env of pseudovirus 6952.v1.c20 (HIV-1)"}, "[18]": {"biological_target": "HIV-1 Env of pseudovirus 89-F1_2_25 (HIV-1)"}, "[19]": {"biological_target": "HIV-1 Env of pseudovirus 9004SS_A3_4 (HIV-1)"}, "[20]": {"biological_target": "HIV-1 Env of pseudovirus 928-28 (HIV-1)"}, "[21]": {"biological_target": "HIV-1 Env of pseudovirus A07412M1.vrc12 (HIV-1)"}, "[22]": {"biological_target": "HIV-1 Env of pseudovirus BJOX010000.06.2 (HIV-1)"}, "[23]": {"biological_target": "HIV-1 Env of pseudovirus BJOX015000.11.5 (HIV-1)"}, "[24]": {"biological_target": "HIV-1 Env of pseudovirus BJOX025000.01.1 (HIV-1)"}, "[25]": {"biological_target": "HIV-1 Env of pseudovirus BJOX028000.10.3 (HIV-1)"}, "[26]": {"biological_target": "HIV-1 Env of pseudovirus C3347.c11 (HIV-1)"}, "[27]": {"biological_target": "HIV-1 Env of pseudovirus C4118.c09 (HIV-1)"}, "[28]": {"biological_target": "HIV-1 Env of pseudovirus P0402_c2_11 (HIV-1)"}, "[29]": {"biological_target": "HIV-1 Env of pseudovirus P1981_C5_3 (HIV-1)"}, "[30]": {"biological_target": "HIV-1 Env of pseudovirus R1166.c01 (HIV-1)"}, "[31]": {"biological_target": "HIV-1 Env of pseudovirus R2184.c04 (HIV-1)"}, "[32]": {"biological_target": "HIV-1 Env of pseudovirus R3265.c06 (HIV-1)"}, "[33]": {"biological_target": "HIV-1 Env of pseudovirus T251-18 (HIV-1)"}, "[34]": {"biological_target": "HIV-1 Env of pseudovirus T255-34 (HIV-1)"}, "[35]": {"biological_target": "HIV-1 Env of pseudovirus T257-31 (HIV-1)"}, "[36]": {"biological_target": "HIV-1 Env of pseudovirus X1254_c3 (HIV-1)"}, "[37]": {"biological_target": "HIV-1 Env of pseudovirus X2131_C1_B5 (HIV-1)"}}, "data": [{"substance": "PGT128 (antibody)", "values": [{"measurement": "IC50 (Titer in TZM.bl cells)", "setting": "[1]", "result": 0.03, "unit": "µg/mL"}, {"measurement": "IC80 (Titer in TZM.bl cells)", "setting": "[1]", "result": 0.137, "unit": "µg/mL"}, {"measurement": "neutralization IC50", "setting": "[2]", "result": 14.2, "unit": "µg/mL"}, {"measurement": "neutralization IC80", "setting": "[2]", "result": "> 50", "unit": "µg/mL"}, {"measurement": "IC50 (Titer in TZM.bl cells)", "setting": "[3]", "result": 0.062, "unit": "µg/mL"}, {"measurement": "IC80 (Titer in TZM.bl cells)", "setting": "[3]", "result": 0.215, "unit": "µg/mL"}, {"measurement": "IC50 (Titer in TZM.bl cells)", "setting": "[4]", "result": "> 50", "unit": "µg/mL"}, {"measurement": "IC80 (Titer in TZM.bl cells)", "setting": "[4]", "result": "> 50", "unit": "µg/mL"}, {"measurement": "IC50 (Titer in TZM.bl cells)", "setting": "[5]", "result": 3.2, "unit": "µg/mL"}, {"measurement": "IC80 (Titer in TZM.bl cells)", "setting": "[5]", "result": "> 50", "unit": "µg/mL"}, {"measurement": "IC50 (Titer in TZM.bl cells)", "setting": "[6]", "result": "> 50", "unit": "µg/mL"}, {"measurement": "IC80 (Titer in TZM.bl cells)", "setting": "[6]", "result": "> 50", "unit": "µg/mL"}, {"measurement": "neutralization IC50", "setting": "[7]", "result": 0.342, "unit": "µg/mL"}, {"measurement": "neutralization IC80", "setting": "[7]", "result": 3.3, "unit": "µg/mL"}, {"measurement": "IC50 (Titer in TZM.bl cells)", "setting": "[8]", "result": "> 50", "unit": "µg/mL"}, {"measurement": "IC80 (Titer in TZM.bl cells)", "setting": "[8]", "result": "> 50", "unit": "µg/mL"}, {"measurement": "IC50 (Titer in TZM.bl cells)", "setting": "[9]", "result": 0.014, "unit": "µg/mL"}, {"measurement": "IC80 (Titer in TZM.bl cells)", "setting": "[9]", "result": 0.033, "unit": "µg/mL"}, {"measurement": "IC50 (Titer in TZM.bl cells)", "setting": "[10]", "result": 0.067, "unit": "µg/mL"}, {"measurement": "IC80 (Titer in TZM.bl cells)", "setting": "[10]", "result": 0.499, "unit": "µg/mL"}, {"measurement": "IC50 (Titer in TZM.bl cells)", "setting": "[11]", "result": 0.003, "unit": "µg/mL"}, {"measurement": "IC80 (Titer in TZM.bl cells)", "setting": "[11]", "result": 0.023, "unit": "µg/mL"}, {"measurement": "IC50 (Titer in TZM.bl cells)", "setting": "[12]", "result": "> 50", "unit": "µg/mL"}, {"measurement": "IC80 (Titer in TZM.bl cells)", "setting": "[12]", "result": "> 50", "unit": "µg/mL"}, {"measurement": "IC50 (Titer in TZM.bl cells)", "setting": "[13]", "result": 0.003, "unit": "µg/mL"}, {"measurement": "IC80 (Titer in TZM.bl cells)", "setting": "[13]", "result": 0.019, "unit": "µg/mL"}, {"measurement": "IC50 (Titer in TZM.bl cells)", "setting": "[14]", "result": 11.8, "unit": "µg/mL"}, {"measurement": "IC80 (Titer in TZM.bl cells)", "setting": "[14]", "result": "> 50", "unit": "µg/mL"}, {"measurement": "IC50 (Titer in TZM.bl cells)", "setting": "[15]", "result": "> 50", "unit": "µg/mL"}, {"measurement": "IC80 (Titer in TZM.bl cells)", "setting": "[15]", "result": "> 50", "unit": "µg/mL"}, {"measurement": "IC50 (Titer in TZM.bl cells)", "setting": "[16]", "result": 0.003, "unit": "µg/mL"}, {"measurement": "IC80 (Titer in TZM.bl cells)", "setting": "[16]", "result": 0.05, "unit": "µg/mL"}, {"measurement": "IC50 (Titer in TZM.bl cells)", "setting": "[17]", "result": "> 50", "unit": "µg/mL"}, {"measurement": "IC80 (Titer in TZM.bl cells)", "setting": "[17]", "result": "> 50", "unit": "µg/mL"}, {"measurement": "IC50 (Titer in TZM.bl cells)", "setting": "[18]", "result": "> 50", "unit": "µg/mL"}, {"measurement": "IC80 (Titer in TZM.bl cells)", "setting": "[18]", "result": "> 50", "unit": "µg/mL"}, {"measurement": "neutralization IC50", "setting": "[19]", "result": 0.002, "unit": "µg/mL"}, {"measurement": "neutralization IC80", "setting": "[19]", "result": 0.01, "unit": "µg/mL"}, {"measurement": "neutralization IC50", "setting": "[20]", "result": "> 50", "unit": "µg/mL"}, {"measurement": "neutralization IC80", "setting": "[20]", "result": "> 50", "unit": "µg/mL"}, {"measurement": "IC50 (Titer in TZM.bl cells)", "setting": "[21]", "result": "> 50", "unit": "µg/mL"}, {"measurement": "IC80 (Titer in TZM.bl cells)", "setting": "[21]", "result": "> 50", "unit": "µg/mL"}, {"measurement": "IC50 (Titer in TZM.bl cells)", "setting": "[22]", "result": 4.82, "unit": "µg/mL"}, {"measurement": "IC80 (Titer in TZM.bl cells)", "setting": "[22]", "result": "> 50", "unit": "µg/mL"}, {"measurement": "IC50 (Titer in TZM.bl cells)", "setting": "[23]", "result": 0.001, "unit": "µg/mL"}, {"measurement": "IC80 (Titer in TZM.bl cells)", "setting": "[23]", "result": 0.011, "unit": "µg/mL"}, {"measurement": "IC50 (Titer in TZM.bl cells)", "setting": "[24]", "result": "> 50", "unit": "µg/mL"}, {"measurement": "IC80 (Titer in TZM.bl cells)", "setting": "[24]", "result": "> 50", "unit": "µg/mL"}, {"measurement": "IC50 (Titer in TZM.bl cells)", "setting": "[25]", "result": 0.024, "unit": "µg/mL"}, {"measurement": "IC80 (Titer in TZM.bl cells)", "setting": "[25]", "result": 0.07, "unit": "µg/mL"}, {"measurement": "IC50 (Titer in TZM.bl cells)", "setting": "[26]", "result": 0.001, "unit": "µg/mL"}, {"measurement": "IC80 (Titer in TZM.bl cells)", "setting": "[26]", "result": 0.007, "unit": "µg/mL"}, {"measurement": "IC50 (Titer in TZM.bl cells)", "setting": "[27]", "result": "> 50", "unit": "µg/mL"}, {"measurement": "IC80 (Titer in TZM.bl cells)", "setting": "[27]", "result": "> 50", "unit": "µg/mL"}, {"measurement": "IC50 (Titer in TZM.bl cells)", "setting": "[28]", "result": 0.007, "unit": "µg/mL"}, {"measurement": "IC80 (Titer in TZM.bl cells)", "setting": "[28]", "result": 0.02, "unit": "µg/mL"}, {"measurement": "IC50 (Titer in TZM.bl cells)", "setting": "[29]", "result": 0.019, "unit": "µg/mL"}, {"measurement": "IC80 (Titer in TZM.bl cells)", "setting": "[29]", "result": 0.088, "unit": "µg/mL"}, {"measurement": "IC50 (Titer in TZM.bl cells)", "setting": "[30]", "result": "> 50", "unit": "µg/mL"}, {"measurement": "IC80 (Titer in TZM.bl cells)", "setting": "[30]", "result": "> 50", "unit": "µg/mL"}, {"measurement": "IC50 (Titer in TZM.bl cells)", "setting": "[31]", "result": 20.1, "unit": "µg/mL"}, {"measurement": "IC80 (Titer in TZM.bl cells)", "setting": "[31]", "result": "> 50", "unit": "µg/mL"}, {"measurement": "IC50 (Titer in TZM.bl cells)", "setting": "[32]", "result": "> 50", "unit": "µg/mL"}, {"measurement": "IC80 (Titer in TZM.bl cells)", "setting": "[32]", "result": "> 50", "unit": "µg/mL"}, {"measurement": "IC50 (Titer in TZM.bl cells)", "setting": "[33]", "result": "> 50", "unit": "µg/mL"}, {"measurement": "IC80 (Titer in TZM.bl cells)", "setting": "[33]", "result": "> 50", "unit": "µg/mL"}, {"measurement": "IC50 (Titer in TZM.bl cells)", "setting": "[34]", "result": "> 50", "unit": "µg/mL"}, {"measurement": "IC80 (Titer in TZM.bl cells)", "setting": "[34]", "result": "> 50", "unit": "µg/mL"}, {"measurement": "neutralization IC50", "setting": "[35]", "result": "> 50", "unit": "µg/mL"}, {"measurement": "neutralization IC80", "setting": "[35]", "result": "> 50", "unit": "µg/mL"}, {"measurement": "IC50 (Titer in TZM.bl cells)", "setting": "[36]", "result": "> 50", "unit": "µg/mL"}, {"measurement": "IC80 (Titer in TZM.bl cells)", "setting": "[36]", "result": "> 50", "unit": "µg/mL"}, {"measurement": "IC50 (Titer in TZM.bl cells)", "setting": "[37]", "result": "> 50", "unit": "µg/mL"}, {"measurement": "IC80 (Titer in TZM.bl cells)", "setting": "[37]", "result": "> 50", "unit": "µg/mL"}]}]}
